{
  "source": "paper PMC10189128",
  "about": "(Frontiers in Cellular and Infection Microbiology, 2023)",
  "binders": {"B1": {"name": "anti-SARS-CoV-2 single-chain variable fragment S1-16 (scFv, V domains shown)", "VH": "QVQLVQSGAEVKKPGASVKVSCKASGYTFTSYYMHWVRQAPGQGLEWMGIINSSGGSTSYAQKFQGRVTMTRDTSTSTVYMELSSLRSEDTAVYYCARPPRNYYDRSGYYQRAEYFQHWGQGTLVTVSS", "VL": "DIQLTQSPSSLSASVGDRVTITCQASQDISNYLNWYQQRPGKAPKLLIYDASNLETGVPSRFSGSGSGTDFTFTISSLQPEDIATYYCQQYDNPPLTFGGGTKLEIK", "notes": "also called scFv S1-16; not shown: His6, C-terminal, kept"}},
  "target": "T1, Mouse Fc-fused SARS-CoV-2 RBD (SARS-CoV-2, original strain (Wuhan-Hu-1 …, UniProt P0DTC2))",
  "T1 construct": "source: bought: Sino Biological",
  "experiment": "SPR",
  "conditions": "both partners purified",
  "data": [
    {"binder": "B1", "values": [
      {"measurement": "Kd", "value": 135, "unit": "nM"}
    ]}
  ]
}
